From paper doi:10.1101/444554 (bioRxiv, 2018)

Tests used:
crystal structure = biological target: the molecule itself; test: crystal structure
SEC-MALS = biological target: the molecule itself; test: SEC-MALS
non-reducing SDS-PAGE = biological target: the molecule itself; test: non-reducing SDS-PAGE

B1: mouse 4-1BB ligand ectodomain (amino acids 140-309) without purification tag, co-expressed with m4-1BB for the complex structure (domain or fragment, UniProt P41274 140-309, looked up)
chain: TTQQGSPVFAKLLAKNQASLCNTTLNWHSQDGAGSSYLSQGLRYEEDKKELVVDSPGLYYVFLELKLSPTFTNTGHKVQGWVSLVLQAKPQVDDFDNLALTVELFPCSMENKLVDRSWSQLLLLKAGHRLSVGLRAYLHGAQDAYRDWELSYPNTTSFGLFLVKPDNPWE
modifications: disulfide linked dimer
stoichiometry N (crystal structure): 2

B2: mouse 4-1BB ligand ectodomain (amino acids 140-309) C246S (domain or fragment, UniProt P41274 140-309, looked up)
chain: TTQQGSPVFAKLLAKNQASLCNTTLNWHSQDGAGSSYLSQGLRYEEDKKELVVDSPGLYYVFLELKLSPTFTNTGHKVQGWVSLVLQAKPQVDDFDNLALTVELFPSSMENKLVDRSWSQLLLLKAGHRLSVGLRAYLHGAQDAYRDWELSYPNTTSFGLFLVKPDNPWE
stoichiometry N (SEC-MALS): 2

B3: mouse 4-1BB ligand ectodomain (amino acids 140-309) S256F (domain or fragment, UniProt P41274 140-309, looked up)
chain: TTQQGSPVFAKLLAKNQASLCNTTLNWHSQDGAGSSYLSQGLRYEEDKKELVVDSPGLYYVFLELKLSPTFTNTGHKVQGWVSLVLQAKPQVDDFDNLALTVELFPCSMENKLVDRFWSQLLLLKAGHRLSVGLRAYLHGAQDAYRDWELSYPNTTSFGLFLVKPDNPWE
modifications: inter-molecular disulfide through Cys 246
stoichiometry N (non-reducing SDS-PAGE): 2
